Measured values: patent US7998940B2, “Aptamers to von Willebrand factor and their use as thrombotic disease therapeutics” (Archemix Corp., priority 2004, dated 2011)
Read-outs that look alike come from different tables or passages of the source. Oligonucleotides are written 5' to 3', each unit as a sugar letter and its base; * is a phosphorothioate linkage, no mark a phosphodiester; rarer units and linkages stand in square brackets, end groups in braces. Plain capitals give the bases only. [invdT] = inverted (3'-3') thymidine; d = 2'-deoxy (DNA); m = 2'-O-methyl; r = 2'-OH (RNA); f = 2'-fluoro

Experiments:
[1] = test system: botrocetin induced platelet aggregation; experiment: Inhibition of botrocetin induced platelet aggregation (BIPA) in human PRP; format: cell-based; conditions: for IC90: human platelet rich plasma; for ≦200 nM aptamer gives >90% blocking in BIPA at 6 minutes: botrocetin induced platelet aggregation
Procedure, shortened: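 Fresh human platelet-rich plasma, prewarmed at 37 degrees C, was preincubated one minute with aptamer (zero, 1 nM to 1000 nM) before botrocetin at a per-donor titrated aggregating concentration. Aggregation was followed as light transmittance; the value is the concentration blocking aggregation by 90% or greater after 6 minutes.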

[2] = test system: full length human vWF (SEQ ID NO 7); experiment: dot blot KD determination and extent of binding, full length human vWF; conditions: for % binding @ 100 nM vWF: extent of aptamer binding at 100 nM full length human vWF; for binding to human vWF: in words;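 on all read-outs here: dot blot binding of aptamers to full length human vWF across a protein titration, incubated 30 minutes at room temperature in 1x DPBS with BSA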
[3] = test system: rabbit vWF A1 domain (SEQ ID NO 6); experiment: 3-point dot blot screen, rabbit vWF A1 domain; format: binding; conditions: for Screen Rabbit/No Protein: 3-point dot blot screen, 20 nM rabbit vWF A1 domain, ratio of fraction of aptamer bound with target protein to fraction bound without protein; for Screen- Rabbit/No Protein: 100 nM rabbit vWF A1 domain, ratio of fraction bound with target to without
Chain of rabbit vWF A1 domain (SEQ ID NO 6) (as listed by the source): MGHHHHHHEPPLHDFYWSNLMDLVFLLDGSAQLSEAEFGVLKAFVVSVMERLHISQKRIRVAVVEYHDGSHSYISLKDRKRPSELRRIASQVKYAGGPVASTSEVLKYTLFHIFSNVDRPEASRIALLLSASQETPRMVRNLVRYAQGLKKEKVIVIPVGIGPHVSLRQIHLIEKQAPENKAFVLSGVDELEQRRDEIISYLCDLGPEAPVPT
Procedure, shortened: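 Rabbit vWF A1 domain binding was screened by dot blot using three conditions: no target protein, human vWF, and rabbit vWF A1 domain at 100 nM (20 nM in the screen run twice). Radiolabeled aptamer bound to nitrocellulose was quantified, and results are expressed as the ratio of bound fraction with protein to bound fraction without protein.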

full length human vWF = experiment: 3-point dot blot screen, full length human vWF; format: binding; conditions: 20 nM full length human vWF, ratio of fraction of aptamer bound with target protein to fraction bound without protein
Procedure, shortened: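 Unique aptamer clones tested twice by nitrocellulose dot blot with no protein, 20 nM full-length human vWF or 20 nM rabbit vWF A1 domain. Value is fraction of aptamer bound with target divided by fraction bound without protein.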

[4] = target: T1, human vWF A1 domain (SEQ ID NO 5) (Homo sapiens, UniProt P04275, T1381A); experiment: dot blot KD determination, human vWF A1 domain
T1 sequence (P04275 with tags, fused parts or gaps T1381A): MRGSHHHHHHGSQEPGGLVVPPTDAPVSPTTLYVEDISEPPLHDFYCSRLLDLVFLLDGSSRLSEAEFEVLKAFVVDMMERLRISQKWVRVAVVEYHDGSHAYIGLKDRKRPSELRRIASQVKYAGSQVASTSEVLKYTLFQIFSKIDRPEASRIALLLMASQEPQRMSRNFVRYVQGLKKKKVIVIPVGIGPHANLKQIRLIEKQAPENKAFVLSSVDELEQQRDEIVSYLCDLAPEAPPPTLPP
Method: For KD determination, aptamers transcripts were purified on 10% denaturing polyacrylamide gels, 5′ end labeled with γ-^32P ATP.
For KD determination, aptamers were purified on denaturing polyacrylamide gels and 5′-end labeled with γ-^32P ATP. A 6 point protein titration of human vWF A1 domain (SEQ ID NO 5) was used in the dot blot assay (333 nM, 100 nM, 33 nM, 10 nM, 3 nM, 0 nM) in 1×DPBS plus 0.1 mg/mL BSA at room temperature for 30 minutes. KD values were calculated by fitting the equation y=(max/(1+K/protein))+yint using KaleidaGraph (KaleidaGraph v. 3.51, Synergy Software).
KD values were calculated by fitting the equation y=(max/(1+K/protein))+yint using KaleidaGraph (KaleidaGraph v. 3.51, Synergy Software).
All minimer sequences were transcribed, gel-purified on 15% denaturing polyacrylamide gels, 5-^32 end-labeled with γ^32P ATP, and then desalted using two Centri-Spin 10 columns (Princeton Separations Cat. #CS-101, Adelphia, N.J.). For KD determination, minimer transcripts were tested for direct binding to full length human vWF (SEQ ID NO 7), human vWF A1 domain (SEQ ID NO 5), and rabbit vWF A1 domain (SEQ ID NO 6) using an 8 point protein titration from 0-300 nM (3 fold dilutions) in 1× Dulbecco's PBS containing 0.1 mg/mL BSA (in a final volume of 50 uL) for 30 minutes at room temperature and then applied to a nitrocellulose and nylon filter sandwich in a dot blot apparatus (Schleicher and Schuell, Keene, N.H.). KD values were calculated by fitting the equation y=(max/(1+K/protein))+yint using KaleidaGraph (KaleidaGraph v. 3.51, Synergy Software).
All minimer DNA sequences were chemically synthesized, 5-^32P end-labeled with γ-^32P ATP, and then desalted using two Centri-Spin 10 columns (Princeton Separations, Cat. #CS-101, Adelphia, N.J.). […] KD values were calculated by fitting the equation y=(max/(1+K/protein))+yint using KaleidaGraph (KaleidaGraph v. 3.51, Synergy Software).

[5] = target: T1, human vWF A1 domain (SEQ ID NO 5); experiment: 3-point dot blot screen, human vWF A1 domain; format: binding; conditions: 100 nM human vWF A1 domain
Procedure, shortened: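 Values are ratios of aptamer fraction retained on nitrocellulose with 100 nM vWF A1 domain (human or rabbit) versus a no-protein control. Unique clones from rounds 9 and 12 pools were transcribed, desalted and 5'-32P labeled before this three-point dot blot screen.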

[6] = Phase 3 modification, full length human vWF, dot blot, 8 point protein titration, read-out: KD
[7] = Phase 4 and 5 modification, full length human vWF, read-out: KD
[8] = read-out: Human A1 KD, rRdY aptamers, 6 point protein titration
[9] = rRdY aptamers, ratio of fraction bound with target to without

PEG20K-NH2-mGmCmGmUdGdCdAmGmUmGmCmCmUmUmCmGmGmCdCmG-s-TmGdCdGdGTmGmCdCmUdCdCmGmUdCmAmCmGmC-3T [ARC1779]
IC90 [1]: ~100 nM

dGdGdCdGTdGdCdAdGTdGdCdCTTdCdGdGdCdCdGTdGdCdGdGTdGdCdCTdCdCdGTdCdAdCdGdCdC-3T (DNA GGCGTGCAGTGCCTTCGGCCGTGCGGTGCCTCCGTCACGCC; DNA, [invdT] at 3' end, backbone and methylation of C not given here) [ARC1172, ARC1115 with 3'-inverted dT]
% binding @ 100 nM vWF ([2]; Phase 1 modification): 37%
Kd ([2]; Phase 1 modification, full length human vWF, dot blot, 8 point protein titration, read-out: KD): 2 nM
% binding @ 100 nM vWF ([2]; Phase 3 modification): 37%
Kd [2, 6]: 2 nM
% binding @ 100 nM vWF ([2]; Phase 4 and 5 modification): 37%
Kd [2, 7]: 2 nM
binding to human vWF ([2]; dot blot): shown to bind
IC90 [1]: ~200 nM

mGmCmGmUdGdCdAmGmUmGmCmCmUmUmCmGmGmCdCmG-s-TmGdCdGdGTmGmCdCmUdCdCmGmUdCmAmCmGmC-3T (GCGUGCAGUGCCUUCGGCCGTGCGGTGCCUCCGUCACGC; sugars from the 5' end mmmmdddmmmmmmmmmmmdmdmddddmmdmddmmdmmmm, [invdT] at 3' end, backbone not given here) [ARC1368]
% binding @ 100 nM vWF ([2]; Phase 3 modification): 38.2%
Kd [2, 6]: 1.8 nM
% binding @ 100 nM vWF ([2]; Phase 4 and 5 modification): 38.2%
Kd [2, 7]: 1.8 nM
binding to human vWF ([2]; dot blot): affinity identical (within experimental error) to that of the parent compound
IC90 [1]: ~200 nM
inhibition of botrocetin induced platelet aggregation ([1]; in words, human PRP): potency comparable to ReoPrO™

B1: AMX237.A2: DNA SELEX 2 aptamer clone (nucleic acid)
chain: CTACCTACGATCTGACTAGCTCCAGTGTTTCATCCAATAACCGTGCGGTGCCTCCGTGAGCTTACTCTCATGTAGTTCC
modifications: DNA, backbone and methylation of C not given here
notes: DNA SELEX 2 aptamer clone
Screen Rabbit/No Protein [3]: 2.34
Screen- Human/No Protein (full length human vWF): 2.60

B2: AMX237.A11: DNA SELEX 2 aptamer clone (nucleic acid)
chain: CTACCTACGATCTGACTAGCTCCAGTGTTTTATCCAATAACCGTGCGGTGCCTCCGTGAGCTTACTCTCATGTAGTTCC
modifications: DNA, backbone and methylation of C not given here
notes: DNA SELEX 2 aptamer clone
Screen Rabbit/No Protein [3]: 2.38
Screen- Human/No Protein (full length human vWF): 2.66

B3: AMX238.G5: DNA SELEX 2 aptamer clone (nucleic acid)
DNA: CTACCTACGATCTGACTAGCTCCAGTGTTTTATTCAATAACCGTGCGGTGCCTCCGTGAGCTTACTCTCATGTAGTTCC
modifications: DNA, backbone and methylation of C not given here
notes: DNA SELEX 2 aptamer clone
Screen Rabbit/No Protein [3]: 2.68
Screen- Human/No Protein (full length human vWF): 3.06

B4: AMX237.B11: DNA SELEX 2 aptamer clone (nucleic acid)
DNA: CTACCTACGATCTGACTAGCTCCAGTGTTTTATCTAATAACCGTGCGGTGCCTCCGTGAGCTTACTCTCATGTAGTTCC
modifications: DNA, backbone and methylation of C not given here
notes: DNA SELEX 2 aptamer clone
Screen Rabbit/No Protein [3]: 2.57
Screen- Human/No Protein (full length human vWF): 2.87

B5: AMX238.D12: DNA SELEX 2 aptamer clone (nucleic acid)
DNA: CTACCTACGATCTGACTAGCTCCAGTGTTTCATTCAATAACCGTGCGGTGCCTCCGTGAGCTTACTCTCATGTAGTTCC
modifications: DNA, backbone and methylation of C not given here
notes: DNA SELEX 2 aptamer clone
Screen Rabbit/No Protein [3]: 2.19
Screen- Human/No Protein (full length human vWF): 2.40

B6: AMX205.F7: rRdY aptamer clone (nucleic acid)
chain: rGrGrArGdCrGdCrAdCdTdCrArGdCdCrAdCrAdCrGrAdCrAdTdTrGrGdCrGrGrGdTdTrGdTrArAdTdTrAdCdCrAdCrGdCrAdTrGrGdCdTrGdTdTdTrGdTdTdTdCrGrAdCdCdTdCdTdCdTrGdCdTrArGdC
Screen- Rabbit/No Protein ([3]; rRdY aptamers): 2.37
Kd [4, 8]: 1.5 nM
≦200 nM aptamer gives >90% blocking in BIPA at 6 minutes [1]: yes
Screen- Human/No Protein [5, 9]: 3.13

B7: AMX203.G9: rRdY aptamer clone (nucleic acid)
chain: rGrGrArGdCrGdCrAdCdTdCrArGdCdCrAdCrGrGrGrGdTrGrGrGdTrArGrAdCrGrGdCrGrGrGdTrAdTrGdTrGrGdCdTrGrGdTrGdTdCrGrArArGrGrGdTdTdTdCrGrAdCdCdTdCdTdCdTrGdCdTrArGdC
Screen- Rabbit/No Protein ([3]; rRdY aptamers): 1.35
Kd [4, 8]: 1.3 nM
≦200 nM aptamer gives >90% blocking in BIPA at 6 minutes [1]: yes
Screen- Human/No Protein [5, 9]: 1.65

B8: AMX205.H10: rRdY aptamer clone (nucleic acid)
chain: rGrGrArGdCrGdCrAdCdTdCrArGdCdCrAdCdTrGdTdTrGdCdCrGrAdCrGrGdTrGrAdTrGdTrAdTdTrArAdCrGdCrGrGrGdCrArAdCrGdTdTrGrGdTrGdTdTdTdCrGrAdCdCdTdCdTdCdTrGdCdTrArGdC
Screen- Rabbit/No Protein ([3]; rRdY aptamers): 2.47
Kd [4, 8]: 397 nM
Screen- Human/No Protein [5, 9]: 1.88

B9: AMX206.D8: rRdY aptamer clone (nucleic acid)
chain: rGrGrArGdCrGdCrAdCdTdCrArGdCdCrAdCrGrAdCrGrGdTrGrAdTrGrGrAdTdTrArGdCrGdCrGrGdTrGrGrAdTdCdTdTrArAdCrGdTrGdCrGrArGdTdTdTdCrGrAdCdCdTdCdTdCdTrGdCdTrArGdC
Screen- Rabbit/No Protein ([3]; rRdY aptamers): 3.76
Kd [4, 8]: 370 nM
Screen- Human/No Protein [5, 9]: 2.80

B10: AMX237.G6: DNA SELEX 2 aptamer clone (nucleic acid)
DNA: CTACCTACGATCTGACTAGCGTGCAGTGCCTATTCCAGGCCGTGCGGTGCCTCCGTCACGCTTACTCTCATGTAGTTCC
modifications: DNA, backbone and methylation of C not given here
notes: DNA SELEX 2 aptamer clone
Screen Rabbit/No Protein [3]: 3.63
Kd ([2]; dot blot, 12 point protein titration, 1xDPBS plus 0.1 mg/mL BSA, room temperature, 30 minutes, read-out: full length human vWF KD): 0.2 nM
≦200 nM aptamer gives >90% blocking in BIPA at 6 minutes [1]: yes
Screen- Human/No Protein (full length human vWF): 3.80

B11: AMX201.C8: rRfY aptamer clone (nucleic acid)
chain: rGrGrArGfCrGfCrAfCfUfCrArGfCfCrAfCfCfCfUfCrGfCrArArGfCrAfUfUfUfUrArArGrArAfUrGrAfCfUfUrGfUrGfCfCrGfCfUrGrGfCfUrGfUfUfUfUfCrGrAfCfCfUfCfUfCfUrGfCfUrArGfC
Screen- Rabbit/No Protein ([3]; rRfY aptamers): 1.50
Kd ([4]; read-out: human A1 KD, rRfY aptamers, 8 point titration of human vWF A1 domain): 0.2 nM
≦200 nM aptamer gives >90% blocking in BIPA at 6 minutes [1]: yes
Screen- Human/No Protein ([5]; rRfY aptamers, ratio of fraction bound with target to fraction bound without target): 2.47
